In test [1] the target is T1, dimeric human PD-L1 (PD-L1-Fc), Alexa-488 labelled (human, UniProt Q9NZQ7 19-238, Alexa-488 fluorescent label (sites not given)).
T1 construct: also called dimeric PD-L1-Fc-Alexa488 probe; dimeric PD-L1-Alexa488 probe; not shown: Fc domain of antibody IgG at the C-terminus; GS linker between PD-L1 and Fc
Briefly: flow cytometry of E. coli spheroplasts displaying the variant, 50 nM dimeric PD-L1-Fc-Alexa488. On the technique in general: Flow cytometry measures light scatter and fluorescence of single cells or particles in a stream.

The target of test [2] is T1, dimeric human PD-L1 (PD-L1-Fc), …. Briefly: flow cytometry of E. coli spheroplasts displaying single clones, fluorescent PD-L1 probe. The procedure: Single colonies at the final round were incubated like Examples above to overexpress the protein and recover E. coli, respectively, and the peptidoglycan layer was removed and the spheroplasts were fluorescent-labeled, and then the binding ability to PD-L1 was analyzed by measuring the fluorescence signal values using FACSCalibur equipment.

T1 sequence (Q9NZQ7 19-238): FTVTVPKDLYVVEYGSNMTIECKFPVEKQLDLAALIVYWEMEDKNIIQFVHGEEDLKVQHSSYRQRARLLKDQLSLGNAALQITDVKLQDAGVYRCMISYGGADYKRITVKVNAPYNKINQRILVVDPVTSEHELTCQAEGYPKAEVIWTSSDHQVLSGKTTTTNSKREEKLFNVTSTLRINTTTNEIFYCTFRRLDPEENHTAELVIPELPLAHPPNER

B1: aglycosylated PD-1 variant Q-IITV (F13I, N25Q, N34Q, M46I, N50Q, C69T, N92Q, G100V), displayed on E. coli spheroplasts (receptor)
chain: LDSPDRPWNPPTISPALLVVTEGDQATFTCSFSQTSESFVLNWYRISPSQQTDKLAAFPEDRSQPGQDTRFRVTQLPNGRDFHMSVVRARRQDSGTYLCVAISLAPKAQIKESLRAELRVTERRAEVPTAHPSPSPRPAGQFQ
notes: pMopac12-N1pA-PD1_Q-IITV-FLAG; not shown: NlpA leader/anchor of the pMopac12-NlpA-FLAG vector; FLAG tag
For the molecule B1, the binding result in test [1] is “binds”.

B2: PD-1 variant N-IITV (F13I, M46I, C69T, G100V), displayed on E. coli spheroplasts (receptor)
chain: LDSPDRPWNPPTISPALLVVTEGDNATFTCSFSNTSESFVLNWYRISPSNQTDKLAAFPEDRSQPGQDTRFRVTQLPNGRDFHMSVVRARRNDSGTYLCVAISLAPKAQIKESLRAELRVTERRAEVPTAHPSPSPRPAGQFQ
notes: also called N-IIITV; PD1_N-IITV; not shown: NlpA leader/anchor of the pMopac12-NlpA-FLAG vector; FLAG tag
For the molecule B2, in test [1], the binding result is given as “binds”.

B3: aglycosylated PD-1 variant Q10, displayed on E. coli spheroplasts (receptor)
chain: LDSPDRPWNPPTISPALLVVTEGDQATFTCSLSQTSESFVLNWYRISPSQQMDKLAAFPEDRSQPGQDTRFRVTQLPNGRDFHMSVDRARRQDSGSYLCVAISLAPKVQIKESLRAELRVTERRAEVPTAHPSPSPRPAGQFQ
notes: Single clone of the final sorting round; not shown: NlpA leader/anchor of the pMopac12-NlpA-FLAG vector; FLAG tag
With B3, in test [2], the binding result is recorded as “binds”.

B4: aglycosylated PD-1 variant Q12, displayed on E. coli spheroplasts (receptor)
chain: LDSPDRPLDPPTISPALLVVTEGDQATFTCSFSQTSKSFVLNWYRISPSQQTDKLAAFPEDRSQPGQDTRFRVTQLPNGRDFHMSVVRARRQDSGTYLCVAISLAPKVQIKESLRAELRVTERRAEVPTAHPSPSPRPACQFQ
notes: as for B3
As for B4, in test [2], the binding result was “binds”.

B5: aglycosylated PD-1 variant Q18, displayed on E. coli spheroplasts (receptor)
chain: LDSPDRPWNPPTISPALLVVTEGDQATFTCGLPQTSESFVLNWYRIGPSQQMDKLAAFPEDRSQPGQDTRFRVTQLPNGRDFHMSVVRARRQDSGTYLCVAISLAPKVQIKESLRAELRVTERRAEVRTAHPSPSPRSAGQFQ
notes: as for B3
For the molecule B5, the binding result in test [2] is “binds”.

B6: aglycosylated PD-1 variant Q33, displayed on E. coli spheroplasts (receptor)
chain: LDSPDRPWNPPTISPALLVVTEGDQATFTCSFSRTSESFVLNWYRISPSQQTDKLAAFPEDRSQPGQDTRFRVTQLPNGRDFHMSVVGAQRQDSGTYLCVAISLAPKVQIKESLRAELRVTERRAEVPTAHPSPSPRPAGQFQ
notes: as for B3
In the case of B6, the binding result in test [2] is “binds”.

For the origin of these results see patent US20230183318A1 (KOREA UNIVERSITY RESEARCH AND BUSINESS FOUNDATION, published 2023).
